Experimental data reported in publication PMC5014334.

Biological target: glutathione-S-transferase (GST)-CDK1 fusion protein (not stated (amplified from RNA of Vero cells; African green monkey from memory))

TrxA-His-p17 fusion protein (natural protein)
in vitro kinase assay: vimentin-Ser 56 phosphorylation of GST-vimentin (2 μM) by GST-CDK1 (10 nM) and GST-cyclin B1 (10 nM) with increasing TrxA-His-p17; Ki of p17: 100 nM
